Source: paper PMC12748766, “Structural basis for human chondroitin sulfate chain polymerization” (Nature Communications, 2025)

What was measured:
[1] = target: T1, Chondroitin Sulfate Synthase-3 (CHSY3), secreted N-terminally truncated construct aa157-aa882 (human, UniProt Q70JA7 157-882); assay: mass photometry; Refeyn OneMP; purified complexes diluted in 20 mM MES pH 6.5, 150 mM NaCl to around 25 nM; settings: both partners purified
T1 construct: CHSY3, human, UniProt Q70JA7, residues 157-882 (membrane-spanning helix removed); Construct in pHR-CMV-TetO2 with an N-terminal chicken RPTP sigma signal peptide, SUMO, 6x His and a 3C site; no cleavage site before the C-terminal Avi tag; source: Freestyle 293-F cells, co-transfected, secreted; purified from the supernatant (HisTrap, 3C protease, second HisTrap); not shown: SUMO, N-terminal, …
T1 sequence (looked up): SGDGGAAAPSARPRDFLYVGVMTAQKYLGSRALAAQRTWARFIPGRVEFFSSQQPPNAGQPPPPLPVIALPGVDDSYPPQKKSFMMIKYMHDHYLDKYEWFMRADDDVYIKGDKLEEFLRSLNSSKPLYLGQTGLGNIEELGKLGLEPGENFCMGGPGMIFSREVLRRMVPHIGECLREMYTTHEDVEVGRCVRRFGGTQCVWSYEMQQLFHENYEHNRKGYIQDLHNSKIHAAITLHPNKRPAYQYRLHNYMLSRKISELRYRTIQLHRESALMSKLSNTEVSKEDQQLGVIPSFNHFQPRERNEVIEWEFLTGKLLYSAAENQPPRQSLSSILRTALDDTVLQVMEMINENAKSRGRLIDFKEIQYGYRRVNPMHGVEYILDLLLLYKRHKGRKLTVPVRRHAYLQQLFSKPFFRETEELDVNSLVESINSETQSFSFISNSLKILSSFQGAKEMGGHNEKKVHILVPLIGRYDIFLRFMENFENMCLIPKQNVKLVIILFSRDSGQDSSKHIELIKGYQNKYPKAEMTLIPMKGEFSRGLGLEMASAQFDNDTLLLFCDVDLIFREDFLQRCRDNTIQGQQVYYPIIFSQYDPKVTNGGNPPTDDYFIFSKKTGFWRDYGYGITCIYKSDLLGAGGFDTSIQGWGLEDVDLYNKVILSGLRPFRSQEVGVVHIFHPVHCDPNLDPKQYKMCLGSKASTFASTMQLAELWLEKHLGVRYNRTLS

[2] = target: T2, Chondroitin Sulfate Synthase-1 (CHSY1), secreted N-terminally truncated construct aa68-aa802 (human, UniProt Q86X52 68-802); assay: as above; settings: both partners purified
T2 construct: CHSY1, human, UniProt Q86X52, residues 68-802 (membrane-spanning helix removed); Construct in pHR-CMV-TetO2 with an N-terminal chicken RPTP sigma signal peptide, SUMO, 6x His and a 3C site; no cleavage site before the C-terminal Avi tag; source: Freestyle 293-F cells, co-transfected, secreted; purified from the supernatant (HisTrap, 3C protease, second HisTrap); not shown: SUMO, N-terminal, …
T2 sequence (looked up): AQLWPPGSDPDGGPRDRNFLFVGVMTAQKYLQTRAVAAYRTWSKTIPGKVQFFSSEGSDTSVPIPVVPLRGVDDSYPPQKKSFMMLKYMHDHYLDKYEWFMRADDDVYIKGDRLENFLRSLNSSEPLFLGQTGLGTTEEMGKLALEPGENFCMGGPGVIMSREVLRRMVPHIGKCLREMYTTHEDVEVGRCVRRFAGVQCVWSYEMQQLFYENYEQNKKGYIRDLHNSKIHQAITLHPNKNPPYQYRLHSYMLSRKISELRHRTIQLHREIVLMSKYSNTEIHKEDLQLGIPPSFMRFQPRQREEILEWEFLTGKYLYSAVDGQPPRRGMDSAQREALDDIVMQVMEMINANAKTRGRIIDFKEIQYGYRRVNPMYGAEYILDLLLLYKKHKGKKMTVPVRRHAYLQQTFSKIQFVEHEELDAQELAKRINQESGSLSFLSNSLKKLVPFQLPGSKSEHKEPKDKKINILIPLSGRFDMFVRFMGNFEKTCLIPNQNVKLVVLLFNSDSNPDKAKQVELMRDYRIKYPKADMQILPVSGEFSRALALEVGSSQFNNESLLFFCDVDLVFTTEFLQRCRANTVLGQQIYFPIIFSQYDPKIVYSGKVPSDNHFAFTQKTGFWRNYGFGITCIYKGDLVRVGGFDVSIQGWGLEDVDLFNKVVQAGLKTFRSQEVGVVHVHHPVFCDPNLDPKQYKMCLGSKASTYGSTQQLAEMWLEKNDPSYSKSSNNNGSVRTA

B1: Chondroitin Polymerization Factor-2 (CHPF2), secreted N-terminally truncated construct aa57-aa772 (domain or fragment, human, UniProt Q9P2E5 57-772, looked up)
chain: SRARLDQSDEDFKPRIVPYYRDPNKPYKKVLRTRYIQTELGSRERLLVAVLTSRATLSTLAVAVNRTVAHHFPRLLYFTGQRGARAPAGMQVVSHGDERPAWLMSETLRHLHTHFGADYDWFFIMQDDTYVQAPRLAALAGHLSINQDLYLGRAEEFIGAGEQARYCHGGFGYLLSRSLLLRLRPHLDGCRGDILSARPDEWLGRCLIDSLGVGCVSQHQGQQYRSFELAKNRDPEKEGSSAFLSAFAVHPVSEGTLMYRLHKRFSALELERAYSEIEQLQAQIRNLTVLTPEGEAGLSWPVGLPAPFTPHSRFEVLGWDYFTEQHTFSCADGAPKCPLQGASRADVGDALETALEQLNRRYQPRLRFQKQRLLNGYRRFDPARGMEYTLDLLLECVTQRGHRRALARRVSLLRPLSRVEILPMPYVTEATRVQLVLPLLVAEAAAAPAFLEAFAANVLEPREHALLTLLLVYGPREGGRGAPDPFLGVKAAAAELERRYPGTRLAWLAVRAEAPSQVRLMDVVSKKHPVDTLFFLTTVWTRPGPEVLNRCRMNAISGWQAFFPVHFQEFNPALSPQRSPPGPPGAGPDPPSPPGADPSRGAPIGGRFDRQASAEGCFYNADYLAARARLAGELAGQEEEEALEGLEVMDVFLRFSGLHLFRAVEPGLVQKFSLRDCSPRLSEELYHRCRLSNLEGLGGRAQLAMALFEQEQANST
notes: CHPF2, human, UniProt Q9P2E5, residues 57-772 (membrane-spanning helix removed); Construct in pHR-CMV-TetO2 with an N-terminal chicken RPTP sigma signal peptide, SUMO, 6x His and a 3C site; a second 3C site stands before the C-terminal twin streptavidin tag; also called CSGlcA-T; source: Freestyle 293-F cells, co-transfected, secreted; purified from the supernatant (HisTrap, 3C protease, second …)
binding result [1]: binds
binding result [2]: binds
